For this test, the target named is GCN4pLI-HCN2(CNBD) tetramer (human). Put plainly: SEC; GCN4pLI-HCN2(CNBD) in solution; column and buffer not told for this run. In general terms: In gel filtration, larger molecules generally elute earlier.

Regarding GCN4pLI-HCN2(CNBD) tetramer, the stoichiometry N (in general, a count of units in the complex or per binding partner) worked out at 4.

Values taken from article PMC5115869.
